Test results taken from the supplement of paper PMC10724198.
± gives the standard deviation of the averaged measurements.

System: Saccharomyces cerevisiae
Test: protein stability index of tFT-peptide fusion (C-terminal peptide) (PSI (0-1 scale)); higher = more stable (slower turnover)
Details: genetic background: wild type; temperature: 37 C
Protocol: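 MPS profiling in S. cerevisiae of the tFT-X12 degron library: putative degron peptides plus stable controls, 12 aa, fused to the C-terminus of a sfGFP-mCherry timer. Cells are FACS-sorted into 8 mCherry/sfGFP bins and deep-sequenced. PSI runs from 0 (unstable) to 1 (stable). Backgrounds are wild type, das1Δ and doa10Δ at 30 °C, and wild type, das1Δ, cdc34-1 and cdc53-1 at 37 °C; 2-3 technical replicates each.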
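Further: PSI is a weighted mean of sequencing reads over stability bins, variants kept only with over 10 reads, mCherry proximal and sfGFP distal, peptide attached via GGGS linker.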

Row | Sequence | protein stability index
1 | FPWGRIFLRLRT | 0.5125 ± 0.0051
2 | FQFTLWRTLLCS | 0.174 ± 0.0054
3 | FQLGLVFCVCSG | 0.453 ± 0.016
4 | FQWILYIAKRVV | 0.442 ± 0.051
5 | FRCPHAVKLVLV | 0.33212 ± 0.00028
6 | FRFSSLLYILLS | 0.0868 ± 0.021
7 | FRTTGQAPPSKP | 0.71966 ± 0.0003
8 | FSLRLFLVLALS | 0.227 ± 0.0026
9 | FSVTTLTILCLR | 0.382 ± 0.0086
10 | FSYLSFLPSLAA | 0.5654 ± 0.0021
11 | FTFPLPPSLLLV | 0.37 ± 0.0071
12 | FTGLCQGLWLGW | 0.7501 ± 0.0044
13 | FVCLCGFLQVLS | 0.526 ± 0.028
14 | FVLWWGWSWLVV | 0.2824 ± 0.00063
15 | FVRVFLRLGVVS | 0.256 ± 0.0033
16 | FVSVWVFLVSSF | 0.401 ± 0.039
17 | FVVQSLNQMRLN | 0.62 ± 0.025
18 | FVYFLLVVCFAF | 0.249 ± 0.017
19 | FWESHVLPYRLL | 0.465 ± 0.028
20 | FWFLWAKMLLSC | 0.138 ± 0.023
21 | FWWVGCGWCRWG | 0.4351 ± 0.00096
22 | FYPFHVFCLLIF | 0.228 ± 0.0053
23 | GAICCFCCYLVF | 0.597 ± 0.031
24 | GALWPGALRFLN | 0.195 ± 0.035
25 | GCLGYTLSCFTY | 0.643 ± 0.015
26 | GCVVLNTVAFIC | 0.136 ± 0.018

Row | Sequence | protein stability index
27 | GELDVRKLLKYF | 0.383 ± 0.0041
28 | GFAFFIGLSFAF | 0.565 ± 0.011
29 | GFFCVWSLLFFN | 0.385 ± 0.005
30 | GFFLCTCIRFWV | 0.421 ± 0.018
31 | GFLRTVHFLLLG | 0.4702 ± 0.0038
32 | GFNIFFFFFFFV | 0.247 ± 0.021
33 | GFPFLCSFLLAS | 0.453 ± 0.005
34 | GFPFLFILYFLC | 0.105 ± 0.0019
35 | GGGAGVVWVRLG | 0.166 ± 0.011
36 | GGGVGGAVVLFW | 0.716 ± 0.0033
37 | GGGWCVWMVWFG | 0.481 ± 0.036
38 | GGIRLRVRFFVI | 0.236 ± 0.016
39 | GGSGGVSWRRVV | 0.546 ± 0.051
40 | GGSIKRFVILVL | 0.482 ± 0.027
41 | GGSKIGFTVGGG | 0.725 ± 0.0018
42 | GGTGGAGSRGQI | 0.7316 ± 0.007
43 | GGWFFWVGAWVV | 0.214 ± 0.0027
44 | GGWRVLHAWVAV | 0.553 ± 0.023
45 | GGYIINRWRTKN | 0.273 ± 0.011
46 | GILPIYNIISRL | 0.84 ± 0.031
47 | GITSFFSWSFLS | 0.366 ± 0.0087
48 | GKWFSWNAIWIR | 0.101 ± 0.046
49 | GLCGVCLVRCVG | 0.393 ± 0.0046
50 | GLGMVIIGLLIG | 0.387 ± 0.0056
51 | GLLGRCPVVVFG | 0.463 ± 0.0047
52 | GLRFFVSSLLCR | 0.555 ± 0.021

Row | Sequence | protein stability index
53 | GLVCPWLIVRFV | 0.216 ± 0.03
54 | GLVWSKCFFIVG | 0.528 ± 0.018
55 | GLWLRVCIVAWV | 0.144 ± 0.0033
56 | GLYLVFMGFVPC | 0.505 ± 0.0082
57 | GNIHHTRFLALL | 0.693 ± 0.024
58 | GNSAGSVGGGRF | 0.7254 ± 0.0028
59 | GPILVWVMADWG | 0.518 ± 0.012
60 | GPVRTEFWLYVW | 0.626 ± 0.0066
61 | GQRIKWGPIYLT | 0.365 ± 0.052
62 | GREGETGSKAGR | 0.717 ± 0.015
63 | GRGGLRVVVWLV | 0.143 ± 0.0029
64 | GRGLGHWWTVRT | 0.716 ± 0.012
65 | GRVAIFTLLWRI | 0.29 ± 0.012
66 | GSLHWVMVFAVP | 0.607 ± 0.03
67 | GSVCVVCWELVV | 0.4792 ± 0.0027
68 | GSVGFICCVVVV | 0.4546 ± 0.0022
69 | GTETWVFVLLKF | 0.179 ± 0.011
70 | GVFFHFFFLFCF | 0.413 ± 0.0047
71 | GVSRRWFSLRCI | 0.2424 ± 0.0022
72 | GVVCCVVVGRMG | 0.63558 ± 6.8e-05
73 | GVVRKLCHWVVA | 0.469 ± 0.013
74 | GWVQFVKAAVLF | 0.4443 ± 0.0032
75 | GYACSIFYLRCV | 0.444 ± 0.016
76 | GYRFSILSILRV | 0.612 ± 0.016
77 | HANPGTFGPCTR | 0.683 ± 0.017
78 | HGVYSVLRFFFC | 0.579 ± 0.023

System: Saccharomyces cerevisiae
Test: as above
Details: genetic background: wild type; temperature: 30 C

Row | Sequence | protein stability index
79 | FPWGRIFLRLRT | 0.487 ± 0.049
80 | FQFTLWRTLLCS | 0.189 ± 0.0077
81 | FQLGLVFCVCSG | 0.367 ± 0.022
82 | FQWILYIAKRVV | 0.338 ± 0.021
83 | FRCPHAVKLVLV | 0.311 ± 0.02
84 | FRFSSLLYILLS | 0.0959 ± 0.022
85 | FRTTGQAPPSKP | 0.568 ± 0.2
86 | FSLRLFLVLALS | 0.193 ± 0.0034
87 | FSVTTLTILCLR | 0.3497 ± 0.0014
88 | FSYLSFLPSLAA | 0.527 ± 0.048
89 | FTFPLPPSLLLV | 0.347 ± 0.017
90 | FTGLCQGLWLGW | 0.738 ± 0.025
91 | FVCLCGFLQVLS | 0.489 ± 0.0078
92 | FVLWWGWSWLVV | 0.235 ± 0.019
93 | FVRVFLRLGVVS | 0.299 ± 0.027
94 | FVSVWVFLVSSF | 0.312 ± 0.024
95 | FVVQSLNQMRLN | 0.441 ± 0.034
96 | FVYFLLVVCFAF | 0.208 ± 0.011
97 | FWESHVLPYRLL | 0.239 ± 0.045
98 | FWFLWAKMLLSC | 0.175 ± 0.022
99 | FWWVGCGWCRWG | 0.378 ± 0.011
100 | FYPFHVFCLLIF | 0.243 ± 0.029
101 | GAICCFCCYLVF | 0.514 ± 0.043
102 | GALWPGALRFLN | 0.171 ± 0.026
103 | GCLGYTLSCFTY | 0.401 ± 0.015
104 | GCVVLNTVAFIC | 0.167 ± 0.037

Row | Sequence | protein stability index
105 | GELDVRKLLKYF | 0.342 ± 0.086
106 | GFAFFIGLSFAF | 0.475 ± 0.034
107 | GFFCVWSLLFFN | 0.283 ± 0.016
108 | GFFLCTCIRFWV | 0.316 ± 0.016
109 | GFLRTVHFLLLG | 0.354 ± 0.054
110 | GFNIFFFFFFFV | 0.326 ± 0.0089
111 | GFPFLCSFLLAS | 0.382 ± 0.013
112 | GFPFLFILYFLC | 0.158 ± 0.019
113 | GGGAGVVWVRLG | 0.235 ± 0.035
114 | GGGVGGAVVLFW | 0.408 ± 0.013
115 | GGGWCVWMVWFG | 0.401 ± 0.024
116 | GGIRLRVRFFVI | 0.247 ± 0.019
117 | GGSGGVSWRRVV | 0.395 ± 0.022
118 | GGSIKRFVILVL | 0.406 ± 0.022
119 | GGSKIGFTVGGG | 0.721 ± 0.018
120 | GGTGGAGSRGQI | 0.499 ± 0.099
121 | GGWFFWVGAWVV | 0.193 ± 0.0025
122 | GGWRVLHAWVAV | 0.463 ± 0.015
123 | GGYIINRWRTKN | 0.27 ± 0.052
124 | GILPIYNIISRL | 0.553 ± 0.28
125 | GITSFFSWSFLS | 0.237 ± 0.048
126 | GKWFSWNAIWIR | 0.145 ± 0.049
127 | GLCGVCLVRCVG | 0.338 ± 0.019
128 | GLGMVIIGLLIG | 0.354 ± 0.022
129 | GLLGRCPVVVFG | 0.378 ± 0.061
130 | GLRFFVSSLLCR | 0.508 ± 0.058

Row | Sequence | protein stability index
131 | GLVCPWLIVRFV | 0.2 ± 0.015
132 | GLVWSKCFFIVG | 0.407 ± 0.033
133 | GLWLRVCIVAWV | 0.14 ± 0.0097
134 | GLYLVFMGFVPC | 0.47 ± 0.029
135 | GNIHHTRFLALL | 0.458 ± 0.0074
136 | GNSAGSVGGGRF | 0.705 ± 0.038
137 | GPILVWVMADWG | 0.447 ± 0.041
138 | GPVRTEFWLYVW | 0.553 ± 0.18
139 | GQRIKWGPIYLT | 0.249 ± 0.019
140 | GREGETGSKAGR | 0.552 ± 0.17
141 | GRGGLRVVVWLV | 0.189 ± 0.011
142 | GRGLGHWWTVRT | 0.751 ± 0.033
143 | GRVAIFTLLWRI | 0.314 ± 0.12
144 | GSLHWVMVFAVP | 0.489 ± 0.042
145 | GSVCVVCWELVV | 0.378 ± 0.04
146 | GSVGFICCVVVV | 0.412 ± 0.0011
147 | GTETWVFVLLKF | 0.218 ± 0.031
148 | GVFFHFFFLFCF | 0.43 ± 0.013
149 | GVSRRWFSLRCI | 0.214 ± 0.0074
150 | GVVCCVVVGRMG | 0.503 ± 0.053
151 | GVVRKLCHWVVA | 0.426 ± 0.04
152 | GWVQFVKAAVLF | 0.36 ± 0.053
153 | GYACSIFYLRCV | 0.377 ± 0.014
154 | GYRFSILSILRV | 0.482 ± 0.025
155 | HANPGTFGPCTR | 0.696 ± 0.048
156 | HGVYSVLRFFFC | 0.453 ± 0.0086
